± gives the uncertainty stated by the source.
experiment: abundance fitness (aPCA) (normalised: wild type 0, dead -1); higher = more abundant; growth selection in yeast, the domain comes from the species named; details: Homo sapiens

Substance | abundance fitness
DnaJ homolog subfamily B member 1 R61L, P25685 | -0.527 ± 0.076
DnaJ homolog subfamily B member 1 R61M, P25685 | -0.495 ± 0.14
DnaJ homolog subfamily B member 1 R61N, P25685 | -0.425 ± 0.1
DnaJ homolog subfamily B member 1 R61Q, P25685 | -0.336 ± 0.093
DnaJ homolog subfamily B member 1 R61S, P25685 | -0.528 ± 0.068
DnaJ homolog subfamily B member 1 R61V, P25685 | -0.429 ± 0.077
DnaJ homolog subfamily B member 1 R61W, P25685 | -0.897 ± 0.14
DnaJ homolog subfamily B member 1 R61Y, P25685 | -0.606 ± 0.13
DnaJ homolog subfamily B member 1 S16A, P25685 | -0.167 ± 0.066
DnaJ homolog subfamily B member 1 S16C, P25685 | -0.185 ± 0.077
DnaJ homolog subfamily B member 1 S16D, P25685 | -0.174 ± 0.09
DnaJ homolog subfamily B member 1 S16G, P25685 | -0.074 ± 0.055
DnaJ homolog subfamily B member 1 S16H, P25685 | -0.24 ± 0.13
DnaJ homolog subfamily B member 1 S16I, P25685 | -0.371 ± 0.11
DnaJ homolog subfamily B member 1 S16K, P25685 | -0.188 ± 0.12
DnaJ homolog subfamily B member 1 S16L, P25685 | -0.297 ± 0.053
DnaJ homolog subfamily B member 1 S16M, P25685 | -0.258 ± 0.073
DnaJ homolog subfamily B member 1 S16N, P25685 | -0.059 ± 0.1
DnaJ homolog subfamily B member 1 S16P, P25685 | -0.123 ± 0.062
DnaJ homolog subfamily B member 1 S16R, P25685 | -0.158 ± 0.065
DnaJ homolog subfamily B member 1 S16T, P25685 | -0.057 ± 0.092
DnaJ homolog subfamily B member 1 S16V, P25685 | -0.301 ± 0.066
DnaJ homolog subfamily B member 1 S16Y, P25685 | -0.676 ± 0.073
DnaJ homolog subfamily B member 1 S56A, P25685 | -0.142 ± 0.085
DnaJ homolog subfamily B member 1 S56C, P25685 | 0.022 ± 0.16
DnaJ homolog subfamily B member 1 S56D, P25685 | -0.551 ± 0.094

Substance | abundance fitness
DnaJ homolog subfamily B member 1 S56E, P25685 | -0.496 ± 0.079
DnaJ homolog subfamily B member 1 S56F, P25685 | -0.526 ± 0.12
DnaJ homolog subfamily B member 1 S56G, P25685 | 0.002 ± 0.079
DnaJ homolog subfamily B member 1 S56H, P25685 | -0.217 ± 0.16
DnaJ homolog subfamily B member 1 S56I, P25685 | -0.174 ± 0.36
DnaJ homolog subfamily B member 1 S56K, P25685 | -0.051 ± 0.17
DnaJ homolog subfamily B member 1 S56M, P25685 | -0.171 ± 0.095
DnaJ homolog subfamily B member 1 S56N, P25685 | -0.343 ± 0.15
DnaJ homolog subfamily B member 1 S56P, P25685 | -0.99 ± 0.1
DnaJ homolog subfamily B member 1 S56Q, P25685 | -0.25 ± 0.14
DnaJ homolog subfamily B member 1 S56R, P25685 | -0.226 ± 0.091
DnaJ homolog subfamily B member 1 S56T, P25685 | -0.111 ± 0.087
DnaJ homolog subfamily B member 1 S56V, P25685 | -0.071 ± 0.066
DnaJ homolog subfamily B member 1 S56W, P25685 | -0.853 ± 0.11
DnaJ homolog subfamily B member 1 S56Y, P25685 | -0.493 ± 0.11
DnaJ homolog subfamily B member 1 T8A, P25685 | -0.143 ± 0.079
DnaJ homolog subfamily B member 1 T8C, P25685 | -0.096 ± 0.094
DnaJ homolog subfamily B member 1 T8D, P25685 | -0.101 ± 0.083
DnaJ homolog subfamily B member 1 T8E, P25685 | -0.239 ± 0.11
DnaJ homolog subfamily B member 1 T8F, P25685 | -0.352 ± 0.17
DnaJ homolog subfamily B member 1 T8G, P25685 | -0.469 ± 0.099
DnaJ homolog subfamily B member 1 T8H, P25685 | 0.211 ± 0.46
DnaJ homolog subfamily B member 1 T8I, P25685 | 0.036 ± 0.088
DnaJ homolog subfamily B member 1 T8L, P25685 | -0.101 ± 0.071
DnaJ homolog subfamily B member 1 T8M, P25685 | -0.121 ± 0.17
DnaJ homolog subfamily B member 1 T8N, P25685 | -0.303 ± 0.18

Substance | abundance fitness
DnaJ homolog subfamily B member 1 T8P, P25685 | -0.333 ± 0.067
DnaJ homolog subfamily B member 1 T8Q, P25685 | -0.165 ± 0.12
DnaJ homolog subfamily B member 1 T8S, P25685 | -0.149 ± 0.093
DnaJ homolog subfamily B member 1 T8V, P25685 | -0.106 ± 0.058
DnaJ homolog subfamily B member 1 T8W, P25685 | -0.281 ± 0.1
DnaJ homolog subfamily B member 1 T8Y, P25685 | -0.261 ± 0.05
DnaJ homolog subfamily B member 1 V54A, P25685 | -0.201 ± 0.2
DnaJ homolog subfamily B member 1 V54C, P25685 | 0.063 ± 0.086
DnaJ homolog subfamily B member 1 V54D, P25685 | -0.419 ± 0.14
DnaJ homolog subfamily B member 1 V54E, P25685 | -0.126 ± 0.15
DnaJ homolog subfamily B member 1 V54F, P25685 | 0.077 ± 0.21
DnaJ homolog subfamily B member 1 V54G, P25685 | -0.322 ± 0.058
DnaJ homolog subfamily B member 1 V54H, P25685 | -0.886 ± 0.19
DnaJ homolog subfamily B member 1 V54I, P25685 | -0.096 ± 0.12
DnaJ homolog subfamily B member 1 V54L, P25685 | -0.171 ± 0.076
DnaJ homolog subfamily B member 1 V54M, P25685 | -0.084 ± 0.14
DnaJ homolog subfamily B member 1 V54N, P25685 | -0.084 ± 0.11
DnaJ homolog subfamily B member 1 V54P, P25685 | -0.699 ± 0.059
DnaJ homolog subfamily B member 1 V54Q, P25685 | -0.423 ± 0.21
DnaJ homolog subfamily B member 1 V54S, P25685 | -0.15 ± 0.076
DnaJ homolog subfamily B member 1 V54T, P25685 | 0.065 ± 0.12
DnaJ homolog subfamily B member 1 V54W, P25685 | -0.185 ± 0.16
DnaJ homolog subfamily B member 1 V54Y, P25685 | -0.211 ± 0.27
DnaJ homolog subfamily B member 1 Y5A, P25685 | -0.316 ± 0.13
DnaJ homolog subfamily B member 1 Y5C, P25685 | -0.164 ± 0.18
DnaJ homolog subfamily B member 1 Y5E, P25685 | -0.808 ± 0.28

Substance | abundance fitness
DnaJ homolog subfamily B member 1 Y5F, P25685 | -0.449 ± 0.16
DnaJ homolog subfamily B member 1 Y5G, P25685 | -0.672 ± 0.092
DnaJ homolog subfamily B member 1 Y5H, P25685 | 0.024 ± 0.068
DnaJ homolog subfamily B member 1 Y5I, P25685 | -0.416 ± 0.21
DnaJ homolog subfamily B member 1 Y5K, P25685 | -0.493 ± 0.15
DnaJ homolog subfamily B member 1 Y5L, P25685 | -0.284 ± 0.14
DnaJ homolog subfamily B member 1 Y5M, P25685 | -0.179 ± 0.11
DnaJ homolog subfamily B member 1 Y5N, P25685 | -0.392 ± 0.12
DnaJ homolog subfamily B member 1 Y5P, P25685 | -0.232 ± 0.15
DnaJ homolog subfamily B member 1 Y5Q, P25685 | -0.3 ± 0.15
DnaJ homolog subfamily B member 1 Y5R, P25685 | -0.52 ± 0.11
DnaJ homolog subfamily B member 1 Y5S, P25685 | -0.262 ± 0.1
DnaJ homolog subfamily B member 1 Y5T, P25685 | -0.699 ± 0.24
DnaJ homolog subfamily B member 1 Y5V, P25685 | -1.47 ± 0.2
DnaJ homolog subfamily B member 1 Y5W, P25685 | -0.305 ± 0.22
DnaJ homolog subfamily B member 1 Y6A, P25685 | -0.991 ± 0.18
DnaJ homolog subfamily B member 1 Y6C, P25685 | -0.863 ± 0.22
DnaJ homolog subfamily B member 1 Y6D, P25685 | -0.747 ± 0.16
DnaJ homolog subfamily B member 1 Y6E, P25685 | -0.683 ± 0.097
DnaJ homolog subfamily B member 1 Y6F, P25685 | -0.162 ± 0.16
DnaJ homolog subfamily B member 1 Y6G, P25685 | -0.977 ± 0.2
DnaJ homolog subfamily B member 1 Y6K, P25685 | -0.911 ± 0.15
DnaJ homolog subfamily B member 1 Y6M, P25685 | -0.806 ± 0.11
DnaJ homolog subfamily B member 1 Y6N, P25685 | -0.523 ± 0.13
DnaJ homolog subfamily B member 1 Y6P, P25685 | -0.589 ± 0.2
DnaJ homolog subfamily B member 1 Y6Q, P25685 | -0.742 ± 0.13
